{
  "source": "patent US11965039B2",
  "about": "“Compstatin analogues and their medical uses” (priority 2018, dated 2024)",
  "target": "Human C3 (Complement tech cat #A113c) (human, UniProt P01024 23-1663)",
  "sequence (P01024 23-1663 limits assumed)": "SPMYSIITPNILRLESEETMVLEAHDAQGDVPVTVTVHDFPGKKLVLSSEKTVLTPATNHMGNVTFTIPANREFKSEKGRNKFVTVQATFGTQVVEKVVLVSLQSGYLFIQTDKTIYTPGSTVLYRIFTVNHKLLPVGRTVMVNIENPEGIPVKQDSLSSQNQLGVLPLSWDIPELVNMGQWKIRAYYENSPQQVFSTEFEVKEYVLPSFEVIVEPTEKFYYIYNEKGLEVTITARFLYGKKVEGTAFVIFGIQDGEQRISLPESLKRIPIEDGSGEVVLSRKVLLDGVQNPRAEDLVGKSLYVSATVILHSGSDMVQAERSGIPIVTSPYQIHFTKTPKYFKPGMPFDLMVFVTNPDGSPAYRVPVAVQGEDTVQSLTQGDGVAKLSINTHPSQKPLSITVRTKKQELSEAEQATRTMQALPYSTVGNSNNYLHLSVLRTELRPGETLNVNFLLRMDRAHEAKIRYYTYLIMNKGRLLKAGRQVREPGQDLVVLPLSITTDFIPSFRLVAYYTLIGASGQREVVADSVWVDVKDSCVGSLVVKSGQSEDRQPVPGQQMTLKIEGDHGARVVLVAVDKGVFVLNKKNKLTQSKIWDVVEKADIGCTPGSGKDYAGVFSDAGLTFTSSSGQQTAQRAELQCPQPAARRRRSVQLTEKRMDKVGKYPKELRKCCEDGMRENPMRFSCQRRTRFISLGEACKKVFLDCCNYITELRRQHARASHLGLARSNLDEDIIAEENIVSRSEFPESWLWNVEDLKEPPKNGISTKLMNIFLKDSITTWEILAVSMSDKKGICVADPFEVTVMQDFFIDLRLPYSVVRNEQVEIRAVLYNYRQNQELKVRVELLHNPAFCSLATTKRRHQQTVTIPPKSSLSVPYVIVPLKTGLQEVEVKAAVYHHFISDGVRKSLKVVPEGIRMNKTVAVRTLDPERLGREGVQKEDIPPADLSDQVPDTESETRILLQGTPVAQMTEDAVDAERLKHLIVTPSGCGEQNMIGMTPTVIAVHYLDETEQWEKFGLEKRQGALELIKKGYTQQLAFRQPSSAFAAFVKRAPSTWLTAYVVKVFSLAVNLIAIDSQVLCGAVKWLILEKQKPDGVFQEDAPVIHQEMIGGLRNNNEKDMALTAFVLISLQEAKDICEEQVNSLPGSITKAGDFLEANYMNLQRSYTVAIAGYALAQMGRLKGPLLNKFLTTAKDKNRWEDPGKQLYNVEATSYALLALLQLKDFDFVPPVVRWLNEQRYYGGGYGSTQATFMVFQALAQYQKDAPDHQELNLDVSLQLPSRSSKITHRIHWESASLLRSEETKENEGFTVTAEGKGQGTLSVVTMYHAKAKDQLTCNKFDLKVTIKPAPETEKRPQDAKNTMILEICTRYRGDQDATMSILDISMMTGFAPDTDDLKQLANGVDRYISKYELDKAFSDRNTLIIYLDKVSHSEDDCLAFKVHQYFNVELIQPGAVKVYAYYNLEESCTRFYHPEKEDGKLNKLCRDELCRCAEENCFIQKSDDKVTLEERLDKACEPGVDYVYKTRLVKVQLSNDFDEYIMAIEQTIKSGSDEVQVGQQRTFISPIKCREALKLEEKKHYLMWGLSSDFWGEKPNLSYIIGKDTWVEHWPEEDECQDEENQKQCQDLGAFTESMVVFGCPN",
  "experiment": "cell-based or functional assay",
  "note": "Starred links: 1 amine or outer side, 2 acyl side, 3 side chain; linkers in the order of their positions; H or OH if unused. Positions of bridges follow the written chain, without caps; N, C: chain ends. Non-standard residues stand in square brackets, D forms with d. Groups on a side chain read outwards from the residue. *: point of attachment. X1 = K(γGlu-G-γGlu-17-carboxy-heptadecanoyl), O=C(O)CCCCCCCCCCCCCCCCC(=O)N[C@@H](CCC(=O)NCC(=O)N[C@@H](CCC(=O)NCCCC[C@H](N[*:1])C(=O)[*:2])C(=O)O)C(=O)O; Trp(1-Me) = Cn1cc(C[C@H](N)C(=O)O)c2ccccc21; C18 diacid = O=C(O)CCCCCCCCCCCCCCCCC(=O)*; γGlu = O=C(O)[C@H](CCC(=O)[*:2])N[*:1]; AEEA = NCCOCCOCC(=O)O; Sar = CNCC(=O)O",
  "data": [
    {"binder": "Ac-EFCI[Trp(1-Me)]QDWGEHRCEGEK([γGlu-Gly-γGlu-C18 diacid])-NH2 (disulfide 3-13; SMILES CC[C@H](C)[C@@H]1NC(=O)[C@@H](NC(=O)[C@H](Cc2ccccc2)NC(=O)[C@H](CCC(=O)O)NC(C)=O)CSSC[C@@H](C(=O)N[C@@H](CCC(=O)O)C(=O)NCC(=O)N[C@@H](CCC(=O)O)C(=O)N[C@@H](CCCCNC(=O)CC[C@H](NC(=O)CNC(=O)CC[C@H](NC(=O)CCCCCCCCCCCCCCCCC(=O)O)C(=O)O)C(=O)O)C(N)=O)NC(=O)[C@H](CCCNC(=N)N)NC(=O)[C@H](Cc2c[nH]cn2)NC(=O)[C@H](CCC(=O)O)NC(=O)CNC(=O)[C@H](Cc2c[nH]c3ccccc23)NC(=O)[C@H](CC(=O)O)NC(=O)[C@H](CCC(N)=O)NC(=O)[C@H](Cc2cn(C)c3ccccc23)NC1=O)", "note": "[Compound 134]", "values": [
      {"measurement": "inhibition of hemolysis IC50", "result": "< 100", "unit": "nM"}
    ]},
    {"binder": "Ac-SEFCI[Trp(1-Me)]QDWGEHRCTGAESK([γGlu-Gly-γGlu-15‑carboxy‑hexadecanoyl])-NH2 (disulfide 4-14)", "note": "[Compound 135]", "values": [
      {"measurement": "inhibition of hemolysis IC50", "result": "< 100", "unit": "nM"}
    ]},
    {"binder": "Ac-SEFCI[Trp(1-Me)]QDWGEHRCTEGE-{8‑aminooctanoyl-X1-NH2} (disulfide 4-14)", "note": "[Compound 136]", "values": [
      {"measurement": "inhibition of hemolysis IC50", "result": "< 100", "unit": "nM"}
    ]},
    {"binder": "Ac-SEFCI[Trp(1-Me)]QDWGEHRCTEGE-{8‑aminooctanoyl-Glu-X1-NH2} (disulfide 4-14)", "note": "[Compound 137]", "values": [
      {"measurement": "inhibition of hemolysis IC50", "result": "< 100", "unit": "nM"}
    ]},
    {"binder": "Ac-SEFCI[Trp(1-Me)]QDWGEHRC[Sar]EGE-{AEEA-X1-NH2} (disulfide 4-14; SMILES CC[C@H](C)[C@@H]1NC(=O)[C@@H](NC(=O)[C@H](Cc2ccccc2)NC(=O)[C@H](CCC(=O)O)NC(=O)[C@H](CO)NC(C)=O)CSSC[C@@H](C(=O)N(C)CC(=O)N[C@@H](CCC(=O)O)C(=O)NCC(=O)N[C@@H](CCC(=O)O)C(=O)NCCOCCOCC(=O)N[C@@H](CCCCNC(=O)CC[C@H](NC(=O)CNC(=O)CC[C@H](NC(=O)CCCCCCCCCCCCCCCCC(=O)O)C(=O)O)C(=O)O)C(N)=O)NC(=O)[C@H](CCCNC(=N)N)NC(=O)[C@H](Cc2c[nH]cn2)NC(=O)[C@H](CCC(=O)O)NC(=O)CNC(=O)[C@H](Cc2c[nH]c3ccccc23)NC(=O)[C@H](CC(=O)O)NC(=O)[C@H](CCC(N)=O)NC(=O)[C@H](Cc2cn(C)c3ccccc23)NC1=O)", "note": "[Compound 138]", "values": [
      {"measurement": "inhibition of hemolysis IC50", "result": "< 100", "unit": "nM"}
    ]},
    {"binder": "Ac-SEFCI[Trp(1-Me)]QDWGEHRC[Sar]EGE-{AEEA-AEEA-AEEA-X1-NH2} (disulfide 4-14; SMILES CC[C@H](C)[C@@H]1NC(=O)[C@@H](NC(=O)[C@H](Cc2ccccc2)NC(=O)[C@H](CCC(=O)O)NC(=O)[C@H](CO)NC(C)=O)CSSC[C@@H](C(=O)N(C)CC(=O)N[C@@H](CCC(=O)O)C(=O)NCC(=O)N[C@@H](CCC(=O)O)C(=O)NCCOCCOCC(=O)NCCOCCOCC(=O)NCCOCCOCC(=O)N[C@@H](CCCCNC(=O)CC[C@H](NC(=O)CNC(=O)CC[C@H](NC(=O)CCCCCCCCCCCCCCCCC(=O)O)C(=O)O)C(=O)O)C(N)=O)NC(=O)[C@H](CCCNC(=N)N)NC(=O)[C@H](Cc2c[nH]cn2)NC(=O)[C@H](CCC(=O)O)NC(=O)CNC(=O)[C@H](Cc2c[nH]c3ccccc23)NC(=O)[C@H](CC(=O)O)NC(=O)[C@H](CCC(N)=O)NC(=O)[C@H](Cc2cn(C)c3ccccc23)NC1=O)", "note": "[Compound 143]", "values": [
      {"measurement": "inhibition of hemolysis IC50", "result": "< 100", "unit": "nM"}
    ]},
    {"binder": "Ac-YCIWQDWGEHRCT-NH2 (disulfide 2-12; SMILES CC[C@H](C)[C@@H]1NC(=O)[C@@H](NC(=O)[C@H](Cc2ccc(O)cc2)NC(C)=O)CSSC[C@@H](C(=O)N[C@H](C(N)=O)[C@@H](C)O)NC(=O)[C@H](CCCNC(=N)N)NC(=O)[C@H](Cc2c[nH]cn2)NC(=O)[C@H](CCC(=O)O)NC(=O)CNC(=O)[C@H](Cc2c[nH]c3ccccc23)NC(=O)[C@H](CC(=O)O)NC(=O)[C@H](CCC(N)=O)NC(=O)[C@H](Cc2c[nH]c3ccccc23)NC1=O)", "note": "[Compound 9]", "values": [
      {"measurement": "inhibition of hemolysis IC50", "result": "< 100", "unit": "nM"}
    ]},
    {"binder": "Ac-SEFCI[Trp(1-Me)]QDW[Sar]EHRC[Sar]E-{AEEA-AEEA-X1-NH2} (disulfide 4-14; SMILES CC[C@H](C)[C@@H]1NC(=O)[C@@H](NC(=O)[C@H](Cc2ccccc2)NC(=O)[C@H](CCC(=O)O)NC(=O)[C@H](CO)NC(C)=O)CSSC[C@@H](C(=O)N(C)CC(=O)N[C@@H](CCC(=O)O)C(=O)NCCOCCOCC(=O)NCCOCCOCC(=O)N[C@@H](CCCCNC(=O)CC[C@H](NC(=O)CNC(=O)CC[C@H](NC(=O)CCCCCCCCCCCCCCCCC(=O)O)C(=O)O)C(=O)O)C(N)=O)NC(=O)[C@H](CCCNC(=N)N)NC(=O)[C@H](Cc2c[nH]cn2)NC(=O)[C@H](CCC(=O)O)NC(=O)CN(C)C(=O)[C@H](Cc2c[nH]c3ccccc23)NC(=O)[C@H](CC(=O)O)NC(=O)[C@H](CCC(N)=O)NC(=O)[C@H](Cc2cn(C)c3ccccc23)NC1=O)", "note": "[Compound 144]", "values": [
      {"measurement": "inhibition of hemolysis IC50", "result": "< 100", "unit": "nM"}
    ]},
    {"binder": "Ac-EFCI[Trp(1-Me)]QDWGEHRC[Sar]EA-{AEEA-AEEA-X1-NH2} (disulfide 3-13; SMILES CC[C@H](C)[C@@H]1NC(=O)[C@@H](NC(=O)[C@H](Cc2ccccc2)NC(=O)[C@H](CCC(=O)O)NC(C)=O)CSSC[C@@H](C(=O)N(C)CC(=O)N[C@@H](CCC(=O)O)C(=O)N[C@@H](C)C(=O)NCCOCCOCC(=O)NCCOCCOCC(=O)N[C@@H](CCCCNC(=O)CC[C@H](NC(=O)CNC(=O)CC[C@H](NC(=O)CCCCCCCCCCCCCCCCC(=O)O)C(=O)O)C(=O)O)C(N)=O)NC(=O)[C@H](CCCNC(=N)N)NC(=O)[C@H](Cc2c[nH]cn2)NC(=O)[C@H](CCC(=O)O)NC(=O)CNC(=O)[C@H](Cc2c[nH]c3ccccc23)NC(=O)[C@H](CC(=O)O)NC(=O)[C@H](CCC(N)=O)NC(=O)[C@H](Cc2cn(C)c3ccccc23)NC1=O)", "note": "[Compound 145]", "values": [
      {"measurement": "inhibition of hemolysis IC50", "result": "< 100", "unit": "nM"}
    ]},
    {"binder": "Ac-ESSAYCIWQDWGEHRCT-NH2 (disulfide 6-16; SMILES CC[C@H](C)[C@@H]1NC(=O)[C@@H](NC(=O)[C@H](Cc2ccc(O)cc2)NC(=O)[C@H](C)NC(=O)[C@H](CO)NC(=O)[C@H](CO)NC(=O)[C@H](CCC(=O)O)NC(C)=O)CSSC[C@@H](C(=O)N[C@H](C(N)=O)[C@@H](C)O)NC(=O)[C@H](CCCNC(=N)N)NC(=O)[C@H](Cc2c[nH]cn2)NC(=O)[C@H](CCC(=O)O)NC(=O)CNC(=O)[C@H](Cc2c[nH]c3ccccc23)NC(=O)[C@H](CC(=O)O)NC(=O)[C@H](CCC(N)=O)NC(=O)[C@H](Cc2c[nH]c3ccccc23)NC1=O)", "note": "[Compound 10]", "values": [
      {"measurement": "inhibition of hemolysis IC50", "result": "< 100", "unit": "nM"}
    ]},
    {"binder": "Ac-[Sar]CIWQDWGEHRCT-NH2 (disulfide 2-12; SMILES CC[C@H](C)[C@@H]1NC(=O)[C@@H](NC(=O)CN(C)C(C)=O)CSSC[C@@H](C(=O)N[C@H](C(N)=O)[C@@H](C)O)NC(=O)[C@H](CCCNC(=N)N)NC(=O)[C@H](Cc2c[nH]cn2)NC(=O)[C@H](CCC(=O)O)NC(=O)CNC(=O)[C@H](Cc2c[nH]c3ccccc23)NC(=O)[C@H](CC(=O)O)NC(=O)[C@H](CCC(N)=O)NC(=O)[C@H](Cc2c[nH]c3ccccc23)NC1=O)", "note": "[Compound 11]", "values": [
      {"measurement": "inhibition of hemolysis IC50", "result": "< 100", "unit": "nM"}
    ]},
    {"binder": "Ac-ICIWQDWGAHRCE-NH2 (disulfide 2-12; SMILES CC[C@H](C)[C@H](NC(C)=O)C(=O)N[C@H]1CSSC[C@@H](C(=O)N[C@@H](CCC(=O)O)C(N)=O)NC(=O)[C@H](CCCNC(=N)N)NC(=O)[C@H](Cc2c[nH]cn2)NC(=O)[C@H](C)NC(=O)CNC(=O)[C@H](Cc2c[nH]c3ccccc23)NC(=O)[C@H](CC(=O)O)NC(=O)[C@H](CCC(N)=O)NC(=O)[C@H](Cc2c[nH]c3ccccc23)NC(=O)[C@H]([C@@H](C)CC)NC1=O)", "note": "[Compound 12]", "values": [
      {"measurement": "inhibition of hemolysis IC50", "result": "< 100", "unit": "nM"}
    ]},
    {"binder": "Ac-ICIWQDWGEHRC[Sar]-NH2 (disulfide 2-12; SMILES CC[C@H](C)[C@H](NC(C)=O)C(=O)N[C@H]1CSSC[C@@H](C(=O)N(C)CC(N)=O)NC(=O)[C@H](CCCNC(=N)N)NC(=O)[C@H](Cc2c[nH]cn2)NC(=O)[C@H](CCC(=O)O)NC(=O)CNC(=O)[C@H](Cc2c[nH]c3ccccc23)NC(=O)[C@H](CC(=O)O)NC(=O)[C@H](CCC(N)=O)NC(=O)[C@H](Cc2c[nH]c3ccccc23)NC(=O)[C@H]([C@@H](C)CC)NC1=O)", "note": "[Compound 13]", "values": [
      {"measurement": "inhibition of hemolysis IC50", "result": "< 100", "unit": "nM"}
    ]},
    {"binder": "Ac-ESSAICIWQDWGEHRCTGAES-NH2 (disulfide 6-16; SMILES CC[C@H](C)[C@H](NC(=O)[C@H](C)NC(=O)[C@H](CO)NC(=O)[C@H](CO)NC(=O)[C@H](CCC(=O)O)NC(C)=O)C(=O)N[C@H]1CSSC[C@@H](C(=O)N[C@H](C(=O)NCC(=O)N[C@@H](C)C(=O)N[C@@H](CCC(=O)O)C(=O)N[C@@H](CO)C(N)=O)[C@@H](C)O)NC(=O)[C@H](CCCNC(=N)N)NC(=O)[C@H](Cc2c[nH]cn2)NC(=O)[C@H](CCC(=O)O)NC(=O)CNC(=O)[C@H](Cc2c[nH]c3ccccc23)NC(=O)[C@H](CC(=O)O)NC(=O)[C@H](CCC(N)=O)NC(=O)[C@H](Cc2c[nH]c3ccccc23)NC(=O)[C@H]([C@@H](C)CC)NC1=O)", "note": "[Compound 14]", "values": [
      {"measurement": "inhibition of hemolysis IC50", "result": "< 100", "unit": "nM"}
    ]},
    {"binder": "Ac-ICIWQEWGEHRCT-NH2 (disulfide 2-12; SMILES CC[C@H](C)[C@H](NC(C)=O)C(=O)N[C@H]1CSSC[C@@H](C(=O)N[C@H](C(N)=O)[C@@H](C)O)NC(=O)[C@H](CCCNC(=N)N)NC(=O)[C@H](Cc2c[nH]cn2)NC(=O)[C@H](CCC(=O)O)NC(=O)CNC(=O)[C@H](Cc2c[nH]c3ccccc23)NC(=O)[C@H](CCC(=O)O)NC(=O)[C@H](CCC(N)=O)NC(=O)[C@H](Cc2c[nH]c3ccccc23)NC(=O)[C@H]([C@@H](C)CC)NC1=O)", "note": "[Compound 16]", "values": [
      {"measurement": "inhibition of hemolysis IC50", "result": "< 100", "unit": "nM"}
    ]}
  ]
}
